Target: HA-tagged type II TGF-β receptor (TβRII) (human, UniProt P37173 23-567)
Assay: patch/FRAP

Sequence of HA-tagged type II TGF-β receptor (TβRII) (P37173 23-567): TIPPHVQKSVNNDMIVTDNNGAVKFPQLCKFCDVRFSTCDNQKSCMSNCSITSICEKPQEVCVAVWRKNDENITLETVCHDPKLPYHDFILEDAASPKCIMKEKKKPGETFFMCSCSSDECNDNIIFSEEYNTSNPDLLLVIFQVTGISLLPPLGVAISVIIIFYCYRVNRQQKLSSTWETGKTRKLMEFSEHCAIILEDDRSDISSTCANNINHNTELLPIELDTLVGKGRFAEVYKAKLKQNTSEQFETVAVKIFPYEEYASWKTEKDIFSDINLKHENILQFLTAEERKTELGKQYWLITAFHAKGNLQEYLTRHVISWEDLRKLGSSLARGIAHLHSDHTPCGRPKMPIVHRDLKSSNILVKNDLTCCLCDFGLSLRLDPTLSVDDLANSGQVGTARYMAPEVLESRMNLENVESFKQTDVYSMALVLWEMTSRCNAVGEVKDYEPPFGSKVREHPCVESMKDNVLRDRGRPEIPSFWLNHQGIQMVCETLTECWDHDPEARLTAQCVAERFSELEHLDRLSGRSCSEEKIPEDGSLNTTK

fold increase of complex formation with TGF-β1 against no ligand: ~2 fold
B1: myc-tagged ALK5 (type I TGF-β receptor, TβRI) (receptor)
chain: LQCFCHLCTKDNFTCVTDGLCFVSVTETTDKVIHNSMCIAEIDLIPRDRPFVCAPSSKTGSVTTTYCCNQDHCNKIELPTTVKSSPGLGPVELAAVIAGPVCFVCISLMLMVYICHNRTVIHHRVPNEEDPSLDRPFISEGTTLKDLIYDMTTSGSGSGLPLLVQRTIARTIVLQESIGKGRFGEVWRGKWRGEEVAVKIFSSREERSWFREAEIYQTVMLRHENILGFIAADNKDNGTWTQLWLVSDYHEHGSLFDYLNRYTVTVEGMIKLALSTASGLAHLHMEIVGTQGKPAIAHRDLKSKNILVKKNGTCCIADLGLAVRHDSATDTIDIAPNHRVGTKRYMAPEVLDDSINMKHFESFKRADIYAMGLVFWEIARRCSIGGIHEDYQLPYYDLVPSDPSVEEMRKVVCEQKLRPNIPNRWQSCEALRVMAKIMRECWYANGAARLTALRIKKTLSQLSQQEGIKM

Source: PMC4551323 (Molecular Biology of the Cell, 2015)
